The experiment deals with T1, wild-type HexaPro (D614) SARS-CoV-2 spike trimer (SARS-CoV-2, wild type (D614), stabilised).
T1 construct: also called wild-type trimer
Nature of the experiment: BLI; Octet Red384; […]; analyte ([…]; HBS-EP+ buffer; 1:1 binding model. The conditions noted are these: one partner purified. A general note: Biolayer interferometry detects binding as a change in optical thickness at a sensor tip.

B1: tixagevimab (AZD8895), full-length IgG (antibody, V domains shown)
VH: QMQLVQSGPEVKKPGTSVKVSCKASGFTFMSSAVQWVRQARGQRLEWIGWIVIGSGNTNYAQKFQERVTITRDMSTSTAYMELSSLRSEDTAVYYCAAPYCSSISCNDGFDIWGQGTMVTVSS
VL: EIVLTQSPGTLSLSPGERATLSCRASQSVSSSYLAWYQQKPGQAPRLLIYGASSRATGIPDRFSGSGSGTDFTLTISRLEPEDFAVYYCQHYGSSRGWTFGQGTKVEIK
notes: also called component of AZD7442 (Evusheld); copies: 2 + 2
By Kd is commonly meant the equilibrium constant for the complex coming apart. A low value points to higher affinity. In turn, B1 showed a Kd of 0.491 nM.

(Values after publication PMC9704045, “Qualification of a Biolayer Interferometry Assay to Support AZD7442 Resistance Monitoring” (Microbiology Spectrum, 2022).)
